Values quoted from earlier work, collected in PMC6235721.
pKd: −log10 of the molar value.

Molecular target: FabI (Escherichia coli) (UniProt P0AEK4)
UniProt P0AEK4, sequence (P0AEK4 2-262): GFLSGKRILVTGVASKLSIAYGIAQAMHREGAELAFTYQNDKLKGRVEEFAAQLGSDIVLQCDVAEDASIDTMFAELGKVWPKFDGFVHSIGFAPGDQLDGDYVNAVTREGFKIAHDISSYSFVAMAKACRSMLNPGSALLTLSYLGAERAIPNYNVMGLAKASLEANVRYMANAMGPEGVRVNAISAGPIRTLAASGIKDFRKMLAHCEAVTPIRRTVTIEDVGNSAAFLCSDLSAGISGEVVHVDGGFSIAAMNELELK

pKd: 6.15
Substance: crypto-58-AcpP (from UniProt P0A6A8)
